Drawing on patent US20050256058A1, this text covers k2 for two molecules.

What all share (experiment): cell-based or functional assay
The target in one assay is T1, Caspase-6, P55212.
T1 chain: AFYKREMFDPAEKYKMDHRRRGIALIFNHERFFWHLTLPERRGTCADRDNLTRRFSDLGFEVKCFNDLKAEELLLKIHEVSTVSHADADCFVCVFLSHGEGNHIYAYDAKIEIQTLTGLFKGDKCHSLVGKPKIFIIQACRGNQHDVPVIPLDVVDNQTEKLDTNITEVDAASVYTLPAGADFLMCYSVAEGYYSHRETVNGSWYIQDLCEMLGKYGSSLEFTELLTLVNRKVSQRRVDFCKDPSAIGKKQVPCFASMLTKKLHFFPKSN

Another assay addresses T2, Caspase-3, P42574.
T2 chain: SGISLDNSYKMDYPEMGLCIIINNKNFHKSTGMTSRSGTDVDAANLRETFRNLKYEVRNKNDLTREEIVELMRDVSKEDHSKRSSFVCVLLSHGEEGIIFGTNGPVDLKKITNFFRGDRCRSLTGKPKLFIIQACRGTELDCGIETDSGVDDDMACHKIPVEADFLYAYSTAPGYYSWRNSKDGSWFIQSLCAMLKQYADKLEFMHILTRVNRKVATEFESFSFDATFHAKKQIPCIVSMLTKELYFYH

In the next assay the target is T3, Caspase-8, Q14790.
T3 chain: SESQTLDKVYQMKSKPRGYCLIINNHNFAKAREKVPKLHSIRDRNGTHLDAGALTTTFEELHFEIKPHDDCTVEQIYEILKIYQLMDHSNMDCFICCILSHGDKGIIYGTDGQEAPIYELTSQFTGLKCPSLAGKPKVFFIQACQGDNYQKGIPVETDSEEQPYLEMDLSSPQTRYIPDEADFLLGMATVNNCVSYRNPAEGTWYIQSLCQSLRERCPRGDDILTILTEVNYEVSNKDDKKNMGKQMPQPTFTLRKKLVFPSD

The target in a further assay is T4, Caspase-9, P55211.
T4 chain: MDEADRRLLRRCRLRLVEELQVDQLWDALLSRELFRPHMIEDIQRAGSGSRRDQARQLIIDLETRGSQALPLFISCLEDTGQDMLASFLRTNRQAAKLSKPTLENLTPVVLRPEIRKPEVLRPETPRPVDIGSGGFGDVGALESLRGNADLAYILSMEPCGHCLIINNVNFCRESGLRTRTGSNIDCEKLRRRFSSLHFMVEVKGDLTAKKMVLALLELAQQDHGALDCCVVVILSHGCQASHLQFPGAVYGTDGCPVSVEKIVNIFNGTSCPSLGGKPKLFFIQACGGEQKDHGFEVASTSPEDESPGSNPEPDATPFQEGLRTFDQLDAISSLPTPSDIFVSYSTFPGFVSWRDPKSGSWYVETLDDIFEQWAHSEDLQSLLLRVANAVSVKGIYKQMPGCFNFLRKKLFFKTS

Assay [1] deals with T5, calpain I from porcine erythrocytes (porcine), P35750.
T5 chain: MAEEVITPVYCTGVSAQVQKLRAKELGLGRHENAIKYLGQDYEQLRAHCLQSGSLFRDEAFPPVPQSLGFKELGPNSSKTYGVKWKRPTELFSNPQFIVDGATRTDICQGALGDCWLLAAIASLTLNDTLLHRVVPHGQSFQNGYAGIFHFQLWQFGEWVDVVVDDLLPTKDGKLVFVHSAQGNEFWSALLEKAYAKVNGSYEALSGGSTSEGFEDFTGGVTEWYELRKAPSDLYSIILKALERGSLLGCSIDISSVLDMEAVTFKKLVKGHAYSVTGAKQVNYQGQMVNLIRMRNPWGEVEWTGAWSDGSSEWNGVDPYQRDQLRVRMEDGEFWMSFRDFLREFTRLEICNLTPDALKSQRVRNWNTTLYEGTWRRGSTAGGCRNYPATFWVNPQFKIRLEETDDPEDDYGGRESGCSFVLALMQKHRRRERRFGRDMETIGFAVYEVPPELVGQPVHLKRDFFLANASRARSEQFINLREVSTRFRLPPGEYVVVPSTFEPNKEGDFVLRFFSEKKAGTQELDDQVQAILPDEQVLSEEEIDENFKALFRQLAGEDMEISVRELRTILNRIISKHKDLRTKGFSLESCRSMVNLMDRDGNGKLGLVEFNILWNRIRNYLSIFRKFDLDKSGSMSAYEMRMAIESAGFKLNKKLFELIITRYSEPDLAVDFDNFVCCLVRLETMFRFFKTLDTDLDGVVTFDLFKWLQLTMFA

The next assay deals with Cathepsin B.
A further assay addresses T6, Caspase-2, P42575.
T6 chain: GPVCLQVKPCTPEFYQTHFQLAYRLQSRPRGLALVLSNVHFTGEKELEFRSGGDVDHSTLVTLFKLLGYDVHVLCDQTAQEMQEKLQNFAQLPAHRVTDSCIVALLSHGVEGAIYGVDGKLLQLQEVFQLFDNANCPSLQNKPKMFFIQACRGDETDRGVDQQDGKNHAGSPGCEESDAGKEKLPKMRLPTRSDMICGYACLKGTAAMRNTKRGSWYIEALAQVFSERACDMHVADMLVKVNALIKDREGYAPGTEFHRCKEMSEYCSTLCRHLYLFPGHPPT

A further assay has as its target T7, Caspase-10, Q92851.
T7 chain: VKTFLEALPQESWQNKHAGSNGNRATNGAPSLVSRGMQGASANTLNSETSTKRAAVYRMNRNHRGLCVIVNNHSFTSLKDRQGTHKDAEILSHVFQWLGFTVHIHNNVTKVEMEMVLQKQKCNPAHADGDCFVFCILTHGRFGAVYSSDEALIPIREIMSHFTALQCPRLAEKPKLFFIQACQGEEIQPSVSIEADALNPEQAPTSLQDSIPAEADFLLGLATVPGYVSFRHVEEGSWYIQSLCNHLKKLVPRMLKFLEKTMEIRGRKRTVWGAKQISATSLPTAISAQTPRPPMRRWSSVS

The target of the next assay is T8, Caspase-7, P55210.
T8 chain: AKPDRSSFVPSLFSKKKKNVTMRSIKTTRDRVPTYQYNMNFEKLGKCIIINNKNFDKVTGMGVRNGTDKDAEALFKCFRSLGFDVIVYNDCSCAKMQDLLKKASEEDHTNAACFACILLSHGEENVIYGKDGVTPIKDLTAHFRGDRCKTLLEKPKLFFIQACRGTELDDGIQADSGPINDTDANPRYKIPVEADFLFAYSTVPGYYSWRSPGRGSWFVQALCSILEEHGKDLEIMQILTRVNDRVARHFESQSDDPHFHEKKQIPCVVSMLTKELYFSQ

With LETD (modifications not checked) [Cbz-Leu-Glu-Thr-AAsp-CH═CH-COOEt], the k2 was 18700 M⁻¹ s⁻¹ in the assay with Caspase-6, P55212; 5560 M⁻¹ s⁻¹ with Caspase-3, P42574; 237000 M⁻¹ s⁻¹ with Caspase-8, Q14790; 37 M⁻¹ s⁻¹ in the assay with Caspase-9, P55211; < 10 M⁻¹ s⁻¹ in assay [1]; < 10 M⁻¹ s⁻¹ in the assay with Cathepsin B.
As to DEVD (modifications not checked) [Cbz-Asp-Glu-Val-AAsp-CH═CH-COOEt (trans)], the k2 with Caspase-2, P42575 turned out to be 2640 M⁻¹ s⁻¹; with Caspase-10, Q92851 it was 49900 M⁻¹ s⁻¹; with Caspase-6, P55212, 35600 M⁻¹ s⁻¹; in the assay with Caspase-3, P42574, 2.13e+06 M⁻¹ s⁻¹; in the assay with Caspase-8, Q14790, 273000 M⁻¹ s⁻¹; with Caspase-7, P55210 it was 239000 M⁻¹ s⁻¹.
